Starred links: 1 amine or outer side, 2 acyl side, 3 side chain; linkers in the order of their positions; H or OH if unused. Non-standard residues stand in square brackets, D forms with d. Groups on a side chain read outwards from the residue. No end group written: not given here. *: point of attachment. C18 diacid = O=C(O)CCCCCCCCCCCCCCCCC(=O)*; γGlu = O=C(O)[C@H](CCC(=O)[*:2])N[*:1]; AEEA = NCCOCCOCC(=O)O; Aib = CC(C)(N)C(=O)O
Molecular target: human corticotropin-releasing factor 2α (CRF2 α receptor) (human), Q13324
Sequence (Q13324 20-411): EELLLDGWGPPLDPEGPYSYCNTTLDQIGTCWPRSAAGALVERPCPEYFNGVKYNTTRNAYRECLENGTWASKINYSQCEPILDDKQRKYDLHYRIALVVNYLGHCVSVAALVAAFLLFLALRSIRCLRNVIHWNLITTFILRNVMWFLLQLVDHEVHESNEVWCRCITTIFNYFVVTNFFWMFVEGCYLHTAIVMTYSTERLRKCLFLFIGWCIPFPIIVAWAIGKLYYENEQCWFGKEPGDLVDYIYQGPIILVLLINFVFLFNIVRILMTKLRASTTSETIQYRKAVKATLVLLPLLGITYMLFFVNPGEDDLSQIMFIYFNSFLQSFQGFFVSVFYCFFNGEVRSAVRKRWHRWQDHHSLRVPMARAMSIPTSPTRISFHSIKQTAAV
Test: cell-based or functional assay

| Binder | EC50 [nM], 0% HSA [nM] | EC50 [nM], 0.1% HSA [nM] |
| --- | --- | --- |
| IVLSLDVPIKLK([AEEA-AEEA-γGlu-C18 diacid])QILLKQERQKKQREKAKTNVQILAQV-NH2 (N-terminus assumed; SMILES CC[C@H](C)[C@H](N)C(=O)N[C@H](C(=O)N[C@@H](CC(C)C)C(=O)N[C@@H](CO)C(=O)N[C@@H](CC(C)C)C(=O)N[C@@H](CC(=O)O)C(=O)N[C@H](C(=O)N1CCC[C@H]1C(=O)N[C@H](C(=O)N[C@@H](CCCCN)C(=O)N[C@@H](CC(C)C)C(=O)N[C@@H](CCCCNC(=O)COCCOCCNC(=O)COCCOCCNC(=O)CC[C@H](NC(=O)CCCCCCCCCCCCCCCCC(=O)O)C(=O)O)C(=O)N[C@@H](CCC(N)=O)C(=O)N[C@H](C(=O)N[C@@H](CC(C)C)C(=O)N[C@@H](CC(C)C)C(=O)N[C@@H](CCCCN)C(=O)N[C@@H](CCC(N)=O)C(=O)N[C@@H](CCC(=O)O)C(=O)N[C@@H](CCCNC(=N)N)C(=O)N[C@@H](CCC(N)=O)C(=O)N[C@@H](CCCCN)C(=O)N[C@@H](CCCCN)C(=O)N[C@@H](CCC(N)=O)C(=O)N[C@@H](CCCNC(=N)N)C(=O)N[C@@H](CCC(=O)O)C(=O)N[C@@H](CCCCN)C(=O)N[C@@H](C)C(=O)N[C@@H](CCCCN)C(=O)N[C@H](C(=O)N[C@@H](CC(N)=O)C(=O)N[C@H](C(=O)N[C@@H](CCC(N)=O)C(=O)N[C@H](C(=O)N[C@@H](CC(C)C)C(=O)N[C@@H](C)C(=O)N[C@@H](CCC(N)=O)C(=O)N[C@H](C(N)=O)C(C)C)[C@@H](C)CC)C(C)C)[C@@H](C)O)[C@@H](C)CC)[C@@H](C)CC)C(C)C)C(C)C) [SEQ ID NO: 90] | 3.91 | 92.6 |
| IVLSLDVPIKLK([AEEA-AEEA-γGlu-C18 diacid])QKLLKQERQKKQREKAKTN[Aib]QILAQV-NH2 (N-terminus assumed; SMILES CC[C@H](C)[C@H](N)C(=O)N[C@H](C(=O)N[C@@H](CC(C)C)C(=O)N[C@@H](CO)C(=O)N[C@@H](CC(C)C)C(=O)N[C@@H](CC(=O)O)C(=O)N[C@H](C(=O)N1CCC[C@H]1C(=O)N[C@H](C(=O)N[C@@H](CCCCN)C(=O)N[C@@H](CC(C)C)C(=O)N[C@@H](CCCCNC(=O)COCCOCCNC(=O)COCCOCCNC(=O)CC[C@H](NC(=O)CCCCCCCCCCCCCCCCC(=O)O)C(=O)O)C(=O)N[C@@H](CCC(N)=O)C(=O)N[C@@H](CCCCN)C(=O)N[C@@H](CC(C)C)C(=O)N[C@@H](CC(C)C)C(=O)N[C@@H](CCCCN)C(=O)N[C@@H](CCC(N)=O)C(=O)N[C@@H](CCC(=O)O)C(=O)N[C@@H](CCCNC(=N)N)C(=O)N[C@@H](CCC(N)=O)C(=O)N[C@@H](CCCCN)C(=O)N[C@@H](CCCCN)C(=O)N[C@@H](CCC(N)=O)C(=O)N[C@@H](CCCNC(=N)N)C(=O)N[C@@H](CCC(=O)O)C(=O)N[C@@H](CCCCN)C(=O)N[C@@H](C)C(=O)N[C@@H](CCCCN)C(=O)N[C@H](C(=O)N[C@@H](CC(N)=O)C(=O)NC(C)(C)C(=O)N[C@@H](CCC(N)=O)C(=O)N[C@H](C(=O)N[C@@H](CC(C)C)C(=O)N[C@@H](C)C(=O)N[C@@H](CCC(N)=O)C(=O)N[C@H](C(N)=O)C(C)C)[C@@H](C)CC)[C@@H](C)O)[C@@H](C)CC)C(C)C)C(C)C) [SEQ ID NO: 91] | 14.3 |  |
| IVLSLDVPIKLK([AEEA-AEEA-γGlu-C18 diacid])QKLLEQERQKKQREQAETN[Aib]QILAQV-NH2 (N-terminus assumed; SMILES CC[C@H](C)[C@H](N)C(=O)N[C@H](C(=O)N[C@@H](CC(C)C)C(=O)N[C@@H](CO)C(=O)N[C@@H](CC(C)C)C(=O)N[C@@H](CC(=O)O)C(=O)N[C@H](C(=O)N1CCC[C@H]1C(=O)N[C@H](C(=O)N[C@@H](CCCCN)C(=O)N[C@@H](CC(C)C)C(=O)N[C@@H](CCCCNC(=O)COCCOCCNC(=O)COCCOCCNC(=O)CC[C@H](NC(=O)CCCCCCCCCCCCCCCCC(=O)O)C(=O)O)C(=O)N[C@@H](CCC(N)=O)C(=O)N[C@@H](CCCCN)C(=O)N[C@@H](CC(C)C)C(=O)N[C@@H](CC(C)C)C(=O)N[C@@H](CCC(=O)O)C(=O)N[C@@H](CCC(N)=O)C(=O)N[C@@H](CCC(=O)O)C(=O)N[C@@H](CCCNC(=N)N)C(=O)N[C@@H](CCC(N)=O)C(=O)N[C@@H](CCCCN)C(=O)N[C@@H](CCCCN)C(=O)N[C@@H](CCC(N)=O)C(=O)N[C@@H](CCCNC(=N)N)C(=O)N[C@@H](CCC(=O)O)C(=O)N[C@@H](CCC(N)=O)C(=O)N[C@@H](C)C(=O)N[C@@H](CCC(=O)O)C(=O)N[C@H](C(=O)N[C@@H](CC(N)=O)C(=O)NC(C)(C)C(=O)N[C@@H](CCC(N)=O)C(=O)N[C@H](C(=O)N[C@@H](CC(C)C)C(=O)N[C@@H](C)C(=O)N[C@@H](CCC(N)=O)C(=O)N[C@H](C(N)=O)C(C)C)[C@@H](C)CC)[C@@H](C)O)[C@@H](C)CC)C(C)C)C(C)C) [SEQ ID NO: 92] | 9.17 |  |
| IVLSLDVPIKLK([AEEA-AEEA-γGlu-C18 diacid])QKLLKQERQKKQREKAKTNVQILAQV-NH2 (N-terminus assumed; SMILES CC[C@H](C)[C@H](N)C(=O)N[C@H](C(=O)N[C@@H](CC(C)C)C(=O)N[C@@H](CO)C(=O)N[C@@H](CC(C)C)C(=O)N[C@@H](CC(=O)O)C(=O)N[C@H](C(=O)N1CCC[C@H]1C(=O)N[C@H](C(=O)N[C@@H](CCCCN)C(=O)N[C@@H](CC(C)C)C(=O)N[C@@H](CCCCNC(=O)COCCOCCNC(=O)COCCOCCNC(=O)CC[C@H](NC(=O)CCCCCCCCCCCCCCCCC(=O)O)C(=O)O)C(=O)N[C@@H](CCC(N)=O)C(=O)N[C@@H](CCCCN)C(=O)N[C@@H](CC(C)C)C(=O)N[C@@H](CC(C)C)C(=O)N[C@@H](CCCCN)C(=O)N[C@@H](CCC(N)=O)C(=O)N[C@@H](CCC(=O)O)C(=O)N[C@@H](CCCNC(=N)N)C(=O)N[C@@H](CCC(N)=O)C(=O)N[C@@H](CCCCN)C(=O)N[C@@H](CCCCN)C(=O)N[C@@H](CCC(N)=O)C(=O)N[C@@H](CCCNC(=N)N)C(=O)N[C@@H](CCC(=O)O)C(=O)N[C@@H](CCCCN)C(=O)N[C@@H](C)C(=O)N[C@@H](CCCCN)C(=O)N[C@H](C(=O)N[C@@H](CC(N)=O)C(=O)N[C@H](C(=O)N[C@@H](CCC(N)=O)C(=O)N[C@H](C(=O)N[C@@H](CC(C)C)C(=O)N[C@@H](C)C(=O)N[C@@H](CCC(N)=O)C(=O)N[C@H](C(N)=O)C(C)C)[C@@H](C)CC)C(C)C)[C@@H](C)O)[C@@H](C)CC)C(C)C)C(C)C) [SEQ ID NO: 93] | 50.9 |  |

Source: patent publication US12679878B2, “CRF2 receptor agonists and their use in therapy” (SANOFI, priority 2020, dated 2026)
